B1: Rab8a, full length, loaded with GppNHp (natural protein, human, UniProt P61006 1-207, looked up)
chain: MAKTYDYLFKLLLIGDSGVGKTCVLFRFSEDAFNSTFISTIGIDFKIRTIELDGKRIKLQIWDTAGQERFRTITTAYYRGAMGIMLVYDITNEKSFDNIRNWIRNIEEHASADVEKMILGNKCDVNDKRQVSKERGEKLALDYGIKFMETSAKANINVENAFFTLARDIKAKMDKKLEGNSPQGSNQGVKITPDQQKRSSFFRCVLL
notes: Rab8a, human; called Rab8 in the results and Rab8aFl in the crystallisation methods; also called Rab8aFl; source: expressed and purified as described previously (Bleimling et al., 2009), loaded with GppNHp, gel filtration
B2: bMERB domain (Rab binding domain) of EHBP1 (domain or fragment)
chain: not shown
notes: EHBP1 1047-1231 (bMERB domain with CaaX box) is named for the prenylation and localisation experiments only; also called RBD of EHBP1
B3: bMERB domain (Rab binding domain) of Mical-cL, residues 534-683 (domain or fragment, human, UniProt O94851 1796-1945, looked up)
chain: KQEELKRLYKAQAIQRQLEEVEERQRASEIQGVRLEKALRGEADSGTQDEAQLLQEWFKLVLEKNKLMRYESELLIMAQELELEDHQSRLEQKLREKMLKEESQKDEKDLNEEQEVFTELMQVIEQRDKLVDSLEEQRIREKAEDQHFES
notes: Mical C-terminal like protein (Mical-cL), human, bMERB domain, residues 534-683; Limits are stated for the crystallised construct; also called Mical-cL_(534-683); RBD of Mical-cL
B4: bMERB domain (Rab binding domain) of Mical-3, residues 1841-1990 (domain or fragment, human, UniProt Q7RTP6 1841-1990, looked up)
chain: KQEELKRLHRAQIIQRQLQQVEERQRRLEERGVAVEKALRGEAGMGKKDDPKLMQEWFKLVQEKNAMVRYESELMIFARELELEDRQSRLQQELRERMAVEDHLKTEEELSEEKQILNEMLEVVEQRDSLVALLEEQRLREREEDKDLEA
notes: Mical-3, human, whole predicted bMERB domain, residues 1841-1990 (isoform 1); printed elsewhere as 1841-1992; Limits are stated for the crystallised selenomethionine construct; also called Mical-3_(1841-1990); RBD of Mical-3

What was measured:
[1] = molecular target: B4; experiment: ITC; iTC200, 25°C; 400 µM Rab titrated into 20–40 µM bMERB domain in the cell; 20 mM Hepes pH 7.5, 50 mM NaCl, 2 mM MgCl2, 1 mM TCEP; details: both partners purified
[2] = molecular target: B2; experiment: as above; details: both partners purified
[3] = molecular target: T1, bMERB domain (Rab binding domain) of EHBP1L1 (human, UniProt Q8N3D4 1340-1523); experiment: as above; details: both partners purified
T1 construct: EHBP1L1, human, bMERB domain; EHBP1L1 1340-1523 (bMERB domain with CaaX box) is named for the prenylation and localisation experiments only; also called RBD of EHBP1L1
T1 sequence (Q8N3D4 1340-1523): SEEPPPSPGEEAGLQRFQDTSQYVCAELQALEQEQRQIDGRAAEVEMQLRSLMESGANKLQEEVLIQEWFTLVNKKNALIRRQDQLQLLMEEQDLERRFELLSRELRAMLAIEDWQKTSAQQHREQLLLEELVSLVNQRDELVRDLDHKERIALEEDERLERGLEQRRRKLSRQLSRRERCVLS

[4] = molecular target: T2, bMERB domain (Rab binding domain) of Mical-1, residues 918-1067 (human, UniProt Q8TDZ2 918-1067); experiment: as above; details: both partners purified
T2 construct: Mical-1, human, bMERB domain, residues 918-1067 (isoform 1); Limits are stated for the crystallised construct; also called Mical-1_(918-1067); RBD of Mical-1
T2 sequence (looked up): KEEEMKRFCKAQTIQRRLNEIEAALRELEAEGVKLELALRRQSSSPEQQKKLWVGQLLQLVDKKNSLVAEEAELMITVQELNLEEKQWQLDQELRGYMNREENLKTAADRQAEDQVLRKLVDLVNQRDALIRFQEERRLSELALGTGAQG

[5] = molecular target: B3; experiment: as above; details: both partners purified
[6] = molecular target: B4; experiment: as above; details: both partners purified; remark: listed apart in the source
[7] = molecular target: T1, bMERB domain (Rab binding domain) of …; experiment: as above; details: both partners purified; remark: listed apart in the source
[8] = molecular target: T2, bMERB domain (Rab binding domain) of …; experiment: as above; details: both partners purified; remark: listed apart in the source
[9] = molecular target: B4; experiment: SEC; analytical size exclusion chromatography with varying ratios of Rab8 and bMERB domain (1.2:1, 1.6:1, 2.2:1; effector 113 µM, Rab 130, 180 or 250 µM); stoichiometry from the peak of free excess Rab8; details: both partners purified
[10] = molecular target: B1; experiment: ITC; iTC200, 25°C; 400 µM Rab titrated into 20–40 µM bMERB domain in the cell; 20 mM Hepes pH 7.5, 50 mM NaCl, 2 mM MgCl2, 1 mM TCEP; details: both partners purified
[11] = molecular target: T3, Rab13, loaded with GppNHp (UniProt P51153 1-203); experiment: as above; details: both partners purified
T3 construct: Rab13; also called Rab13:GppNHp; source: expressed and purified as described previously (Bleimling et al., 2009), loaded with GppNHp, gel filtration
T3 sequence (looked up): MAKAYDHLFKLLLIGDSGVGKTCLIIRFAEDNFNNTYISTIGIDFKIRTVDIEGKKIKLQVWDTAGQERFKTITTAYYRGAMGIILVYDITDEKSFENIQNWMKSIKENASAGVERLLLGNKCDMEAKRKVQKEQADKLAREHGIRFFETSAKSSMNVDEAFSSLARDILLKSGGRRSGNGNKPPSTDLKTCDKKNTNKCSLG

[12] = molecular target: B1; experiment: as above; details: both partners purified; remark: listed apart in the source
[13] = molecular target: T4, Rab10, full length, loaded with GppNHp (human, UniProt P61026 1-200); experiment: as above; details: both partners purified
T4 construct: Rab10, human; Rab10Fl in the crystallisation methods; also called Rab10Fl; source: expressed and purified as described previously (Bleimling et al., 2009), loaded with GppNHp, gel filtration
T4 sequence (looked up): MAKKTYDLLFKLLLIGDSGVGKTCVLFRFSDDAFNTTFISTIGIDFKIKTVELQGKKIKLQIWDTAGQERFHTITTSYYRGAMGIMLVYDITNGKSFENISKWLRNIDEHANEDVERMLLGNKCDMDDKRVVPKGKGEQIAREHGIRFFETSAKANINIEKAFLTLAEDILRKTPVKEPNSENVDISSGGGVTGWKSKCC

[14] = molecular target: T3, Rab13, loaded with GppNHp; experiment: as above; details: both partners purified; remark: listed apart in the source
[15] = molecular target: T5, Rab15, loaded with GppNHp (UniProt P59190 1-212); experiment: as above; details: both partners purified
T5 construct: Rab15; source: expressed and purified as described previously (Bleimling et al., 2009), loaded with GppNHp, gel filtration
T5 sequence (looked up): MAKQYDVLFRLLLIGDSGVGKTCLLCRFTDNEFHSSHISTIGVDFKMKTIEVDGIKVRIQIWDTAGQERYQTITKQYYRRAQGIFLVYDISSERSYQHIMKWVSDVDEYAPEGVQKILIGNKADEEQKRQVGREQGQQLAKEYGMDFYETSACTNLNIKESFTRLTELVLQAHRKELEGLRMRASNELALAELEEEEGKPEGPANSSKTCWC

[16] = molecular target: the molecule itself; experiment: SEC; analytical size exclusion chromatography of the bMERB domain alone (112.5 µM); apparent size from the retention
[17] = molecular target: T4, Rab10, full length, loaded with GppNHp; experiment: SEC; analytical size exclusion chromatography, Superdex S75 10/300 GL; 130 µM Rab:GppNHp + 112.5 µM (113 µM) bMERB domain; 20 mM Hepes pH 7.5, 50 mM NaCl, 2 mM DTE, 2 mM MgCl2; details: both partners purified
[18] = molecular target: B1; experiment: as above; details: both partners purified

## B1
[1]
  stoichiometry N: 2
[2]
  stoichiometry N: 1
[3]
  stoichiometry N: 2
[4]
  stoichiometry N: 2
[5]
  stoichiometry N: 1
[6]
  KD,1 (two-site fit): 27.9 nM
[7]
  KD,1 (two-site fit): 159 nM
[8]
  KD,1 (two-site fit): 55.5 nM
[9]
  stoichiometry N: 1

## B2
[10]
  Kd: 397 nM

## B3
[11]
  Kd: 93 nM
[12]
  Kd: 233 nM
[13]
  Kd: 790 nM
[14]
  Kd: 94 nM
[15]
  Kd: 33 nM
[10]
  Kd: 253 nM
[16]
  stoichiometry N: 2

## B4
[17]
  binding result: binds
[18]
  binding result: binds
[16]
  stoichiometry N: 2
